Measurements taken from patent US20220227872A1 (LUDWIG INSTITUTE FOR CANCER RESEARCH, published 2022).

B1: human tumor endothelial marker 1 (TEM1) on cells (receptor)
chain: QDPWAAEPRAACGPSSCYALFPRRRTFLEAWRACRELGGDLATPRTPEEAQRVDSLVGAGPASRLLWIGLQRQARQCQLQRPLRGFTWTTGDQDTAFTNWAQPASGGPCPAQRCVALEASGEHRWLEGSCTLAVDGYLCQFGFEGACPALQDEAGQAGPAVYTTPFHLVSTEFEWLPFGSVAAVQCQAGRGASLLCVKQPEGGVGWSRAGPLCLGTGCSPDNGGCEHECVEEVDGHVSCRCTEGFRLAADGRSCEDPCAQAPCEQQCEPGGPQGYSCHCRLGFRPAEDDPHRCVDTDECQIAGVCQQMCVNYVGGFECYCSEGHELEADGISCSPAGAMGAQASQDLGDELLDDGEDEEDEDEAWKAFNGGWTEMPGILWMEPTQPPDFALAYRPSFPEDREPQIPYPEPTWPPPLSAPRVPYHSSVLSVTRPVVVSATHPTLPSAHQPPVIPATHPALSRDHQIPVIAANYPDLPSAYQPGILSVSHSAQPPAHQPPMISTKYPELFPAHQSPMFPDTRVAGTQTTTHLPGIPPNHAPLVTTLGAQLPPQAPDALVLRTQATQLPIIPTAQPSLTTTSRSPVSPAHQISVPAATQPAALPTLLPSQSPTNQTSPISPTHPHSKAPQIPREDGPSPKLALWLPSPAPTAAPTALGEAGLAEHSQRDDRWLLVALLVPTCVFLVVLLALGIVYCTRCGPHAPNKRITDCYRWVIHAGSKSPTEPMPPRGSLTGVQTCRTSV
notes: Endogenous on A673 and SK-N-AS cells, or full length hTEM1 ORF (NM_020404.3) in pTagGFP2-N transiently expressed in HEK293T cells; also called hTEM1; human TEM1
B2: murine tumor endothelial marker 1 (TEM1) on cells (receptor)
chain: QVPWTPEPRAACGPSSCYALFPRRRTFLEAWRACRELGGNLATPRTPEEAQRVDSLVGVGPANGLLWIGLQRQARQCQPQRPLRGFIWTTGDQDTAFTNWAQPATEGPCPAQRCAALEASGEHRWLEGSCTLAVDGYLCQFGFEGACPALPLEVGQAGPAVYTTPFNLVSSEFEWLPFGSVAAVQCQAGRGASLLCVKQPSGGVGWSQTGPLCPGTGCGPDNGGCEHECVEEVDGAVSCRCSEGFRLAADGHSCEDPCAQAPCEQQCEPGGPQGYSCHCRLGFRPAEDDPHRCVDTDECQIAGVCQQMCVNYVGGFECYCSEGHELEADGISCSPAGAMGAQASQDLRDELLDDGEEGEDEEEPWEDFDGTWTEEQGILWLAPTHPPDFGLPYRPNFPQDGEPQRLHLEPTWPPPLSAPRGPYHSSVVSATRPMVISATRPTLPSAHKTSVISATRPPLSPVHPPAMAPATPPAVFSEHQIPKIKANYPDLPFGHKPGITSATHPARSPPYQPPIISTNYPQVFPPHQAPMSPDTHTITYLPPVPPHLDPGDTTSKAHQHPLLPDAPGIRTQAPQLSVSALQPPLPTNSRSSVHETPVPAANQPPAFPSSPLPPQRPTNQTSSISPTHSYSRAPLVPREGVPSPKSVPQLPSVPSTAAPTALAESGLAGQSQRDDRWLLVALLVPTCVFLVVLLALGIVYCTRCGSHAPNKRITDCYRWVTHAGNKSSTEPMPPRGSLTGVQTCRTSV
notes: also called mTEM1; murine TEM1
B3: anti-TEM1 scFv-Fc fusion 2B11 (Fc fusion)
VH: EVQLVETGGGLVKPGGSLRLSCAASGFTFNTYTMNWVRQAPGKGLEWVSSISSSSTYIYYADSVKGRFTISRDNAKNSLYLQMNSLRAEDTAVYYCAKSIVGATHDAFDIWGQGTMVTVSS
VL: DIQMTQSPPTLSASVGDRVTITCRASQSISRWLAWYQQKPGKAPNLLIYDASNLQSGVPSRFSGSGSGTEFTLTISSLQPDDFGTYYCQQYKNYSPTFGQGTKLEIK
notes: also called 2B11 scFv-Fc

Columns and labels:
[1] = target: T1, anti-TEM1 scFv-Fc fusion 3B6; test: FACS on cell lines
T1 construct: also called 3B6 scFv-Fc
Description: (§1) A673, human Ewing's sarcoma; SK-N-AS, human neuroblastoma; 2H11, murine tumor vascular endothelium; TC1, murine lung adenocarcinoma; HEK293-6E, human embryonic kidney; HT-1080, human fibrosarcoma; MDA-MB-231, human mammary carcinoma; MS1, murine pancreatic islet endothelium.
(§2) Adherent cells were detached using 10 mM EDTA, counted and resuspended in fresh, complete culture medium. All subsequent steps were performed on ice. […] After washing three times with FACS buffer, the secondary antibody, Alexa Fluor 647 AffiniPure Goat Anti-Human IgG (Jackson Immunoresearch, #109-605-098, 1:200 dilution) was added. Following incubation for 30 min the cells were washed again three times. Immediately before data acquisition, dead cells were stained with 4′,6-Diamidino-2-phenylindole (DAPI, 1:2000 dilution). Data was acquired using an LSR-II flow cytometer equipped with […] software (BD Biosciences). Data analysis and plotting were carried out using FlowJo v10 (FlowJo LLC).

[2] = target: T1, anti-TEM1 scFv-Fc fusion 3B6; test: FACS, scFv-Fc 2 µg/ml on human and murine cell lines
Description: as §1, §2

[3] = target: B1; test: FACS on cell lines
Description: as §1, §2

[4] = target: B2; test: FACS, scFv-Fc 2 µg/ml on human and murine cell lines
Description: as §1, §2

T1 sequence (VH, as listed by the source, chain 1 of 2): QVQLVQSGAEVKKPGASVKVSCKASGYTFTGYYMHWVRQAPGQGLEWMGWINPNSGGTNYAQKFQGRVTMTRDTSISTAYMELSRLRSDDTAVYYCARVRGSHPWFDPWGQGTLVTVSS
T1 sequence (VL, as listed by the source, chain 2 of 2): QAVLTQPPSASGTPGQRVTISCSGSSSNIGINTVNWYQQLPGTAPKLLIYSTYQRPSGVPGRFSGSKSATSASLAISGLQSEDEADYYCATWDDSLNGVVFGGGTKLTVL

## B1
[1]
  binding result: binds

## B2
[2]
  binding result: binds

## B3
[3]
  binding result: binds
[4]
  binding result: binds
